The results in this text go back to article PMC9605497, “Potential of Epidermal Growth Factor-like Peptide from the Sea Cucumber Stichopus horrens to Increase the Growth of Human Cells: In Silico Molecular Docking Approach” (Marine Drugs, 2022).

The assay addresses T1, human epidermal growth factor receptor (human (endogenous in melanoma cells …, UniProt P00533 25-1210)).
T1 construct: epidermal growth factor receptor, human, as present on human melanoma cells (CRL-1872); The cells were not transfected; also called hEGFR; EGFR; source: endogenous, human melanoma cells (CRL-1872, ATCC), formalin-fixed in a 96-well plate
In words: ligand binding assay on fixed cells (biotinylated ligand, NeutrAvidin-HRP, ABTS, absorbance at 405 nm); formalin-fixed human melanoma cells in a 96-well plate; biotinylated peptide at 10, 50 and 500 nM in MEM with 0.1% BSA and 200 mM HEPES, 37 °C, 1 h; washes with cold PBS and 0.3 M NaCl; triplicates. As to conditions: one partner purified.

B1: Recombinant human EGF (ligand)
chain: MNSDSECPLSHDGYCLHDGVCMYIEALDKYACNCVVGYIGERCQYRDLKWWELR
modifications: biotin (conjugated with NHS-biotin; sites not stated)
notes: also called rhEGF; source: bought: Thermo Scientific; biotinylated with NHS-biotin
With B1, the “increase of the relative binding percentage on a tenfold higher concentration” value is 4%.
